Measured values reported in US20090093061A1.

Tests used:
Assay in all cases: GroEL-490 bead column capture of denatured serum, ATP elution, LC-MS-MS
[1] = target: 3-phosphoinositide dependent protein kinase-1 (Homo sapiens) (UniProt O15530)
[2] = target: H factor 1 (complement) (Homo sapiens) (UniProt P08603)
[3] = target: H2A histone family, member X (Homo sapiens) (UniProt P16104)
KIAA0317 (Homo sapiens) = KIAA0317 (Homo sapiens) (UniProt O15033)
[4] = target: MAP/ERK kinase kinase 4 isoform a (Homo sapiens) (UniProt Q9Y6R4)
[5] = target: MAX dimerization protein 5 (Homo sapiens) (UniProt Q8IWI9)
[6] = target: PDZ domain-containing guanine nucleotide exchange factor I (Homo sapiens) (UniProt Q8TEU7)
[7] = target: POU domain, class 2, transcription factor 1 (Homo sapiens) (UniProt P14859)
[8] = target: Rho GTPase activating protein 21 (Homo sapiens) (UniProt Q5T5U3)
[9] = target: SPRY domain-containing SOCS box protein SSB-4 (Homo sapiens) (UniProt Q96A44)
[10] = target: angiomotin like 2 (Homo sapiens) (UniProt Q9Y2J4)
[11] = target: ankyrin repeat domain 26 (Homo sapiens) (UniProt Q9UPS8)
[12] = target: apical protein of Xenopus-like (Homo sapiens) (UniProt Q13796)
[13] = target: complement component 4B proprotein (Homo sapiens) (UniProt P0C0L5)
dendrin (Homo sapiens) = dendrin (Homo sapiens) (UniProt O94850)
[14] = target: dynein, cytoplasmic, heavy polypeptide 2 (Homo sapiens) (UniProt Q8NCM8)
[15] = target: extra spindle poles like 1 (Homo sapiens) (UniProt Q14674)
[16] = target: hematopoletic protein 1 (Homo sapiens) (UniProt P55160)
hemopexin (Homo sapiens) = hemopexin (Homo sapiens) (UniProt P02790)
[17] = target: human immunodeficiency virus type I enhancer binding protein 2 (Homo sapiens) (UniProt P31629)
[18] = target: hypothetical protein FLJ35834 (Homo sapiens)
[19] = target: hypothetical protein XP_376158 (Homo sapiens)
[20] = target: hypothetical protein XP_378639 (Homo sapiens)
[21] = target: hypothetical protein XP_378771 (Homo sapiens)
[22] = target: integrin, beta 5 (Homo sapiens) (UniProt P18084)
[23] = target: kinesin family member 23 isoform 1 (Homo sapiens) (UniProt Q02241)
[24] = target: peroxisome biogenesis factor 13 (Homo sapiens) (UniProt Q92968)
[25] = target: retinoblastoma binding protein 8 isoform b (Homo sapiens) (UniProt Q99708)
[26] = target: similar to BC331191_1 (Homo sapiens)
[27] = target: T1, similar to Nonhistone chromosomal protein HMG-14 (High-mobility group nucleosome binding domain 1) (Homo sapiens) (UniProt P05114)
T1 sequence (looked up): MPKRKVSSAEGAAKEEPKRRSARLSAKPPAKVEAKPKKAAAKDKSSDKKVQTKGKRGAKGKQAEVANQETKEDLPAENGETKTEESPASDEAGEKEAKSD

[28] = target: synovial sarcoma, X breakpoint 2 isoform a (Homo sapiens) (UniProt Q16385)
[29] = target: tripartite motif protein TRIM14 isoform alpha (Homo sapiens) (UniProt Q14142)
tripartite motif protein TRIM14 isoform alpha (Homo sapiens), sequence (Q14142 whole entry, canonical isoform): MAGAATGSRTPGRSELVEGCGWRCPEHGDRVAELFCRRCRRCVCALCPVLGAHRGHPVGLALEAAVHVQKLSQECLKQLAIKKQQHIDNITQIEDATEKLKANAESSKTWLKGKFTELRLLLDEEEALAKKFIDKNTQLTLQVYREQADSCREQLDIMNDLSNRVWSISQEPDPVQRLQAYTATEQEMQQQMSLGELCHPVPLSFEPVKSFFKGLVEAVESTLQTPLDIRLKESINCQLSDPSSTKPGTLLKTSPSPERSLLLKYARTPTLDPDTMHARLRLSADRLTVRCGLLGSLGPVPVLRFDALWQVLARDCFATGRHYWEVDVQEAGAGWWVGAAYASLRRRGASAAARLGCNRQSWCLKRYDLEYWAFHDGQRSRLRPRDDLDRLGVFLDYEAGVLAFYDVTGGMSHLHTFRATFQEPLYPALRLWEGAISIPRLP

GroEL having Aspartate 490 substituted with Cysteine, biotinylated and conjugated onto NeutrAvidin beads, sequence (A1AJ51 whole entry D490C): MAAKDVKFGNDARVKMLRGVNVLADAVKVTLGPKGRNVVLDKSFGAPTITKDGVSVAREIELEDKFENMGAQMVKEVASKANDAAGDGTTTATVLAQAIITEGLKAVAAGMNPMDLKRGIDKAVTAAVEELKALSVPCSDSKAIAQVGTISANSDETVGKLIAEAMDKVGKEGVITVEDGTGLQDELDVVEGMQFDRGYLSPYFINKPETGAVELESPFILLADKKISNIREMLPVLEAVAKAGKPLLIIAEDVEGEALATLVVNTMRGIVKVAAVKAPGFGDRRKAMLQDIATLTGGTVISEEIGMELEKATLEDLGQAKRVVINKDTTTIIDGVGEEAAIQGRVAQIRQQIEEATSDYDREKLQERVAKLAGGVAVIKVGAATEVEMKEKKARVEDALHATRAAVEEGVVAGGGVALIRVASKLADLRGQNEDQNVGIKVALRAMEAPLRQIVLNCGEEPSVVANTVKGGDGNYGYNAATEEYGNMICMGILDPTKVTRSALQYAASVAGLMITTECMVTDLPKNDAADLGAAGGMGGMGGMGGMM
hematopoletic protein 1 (Homo sapiens), sequence (P55160 whole entry): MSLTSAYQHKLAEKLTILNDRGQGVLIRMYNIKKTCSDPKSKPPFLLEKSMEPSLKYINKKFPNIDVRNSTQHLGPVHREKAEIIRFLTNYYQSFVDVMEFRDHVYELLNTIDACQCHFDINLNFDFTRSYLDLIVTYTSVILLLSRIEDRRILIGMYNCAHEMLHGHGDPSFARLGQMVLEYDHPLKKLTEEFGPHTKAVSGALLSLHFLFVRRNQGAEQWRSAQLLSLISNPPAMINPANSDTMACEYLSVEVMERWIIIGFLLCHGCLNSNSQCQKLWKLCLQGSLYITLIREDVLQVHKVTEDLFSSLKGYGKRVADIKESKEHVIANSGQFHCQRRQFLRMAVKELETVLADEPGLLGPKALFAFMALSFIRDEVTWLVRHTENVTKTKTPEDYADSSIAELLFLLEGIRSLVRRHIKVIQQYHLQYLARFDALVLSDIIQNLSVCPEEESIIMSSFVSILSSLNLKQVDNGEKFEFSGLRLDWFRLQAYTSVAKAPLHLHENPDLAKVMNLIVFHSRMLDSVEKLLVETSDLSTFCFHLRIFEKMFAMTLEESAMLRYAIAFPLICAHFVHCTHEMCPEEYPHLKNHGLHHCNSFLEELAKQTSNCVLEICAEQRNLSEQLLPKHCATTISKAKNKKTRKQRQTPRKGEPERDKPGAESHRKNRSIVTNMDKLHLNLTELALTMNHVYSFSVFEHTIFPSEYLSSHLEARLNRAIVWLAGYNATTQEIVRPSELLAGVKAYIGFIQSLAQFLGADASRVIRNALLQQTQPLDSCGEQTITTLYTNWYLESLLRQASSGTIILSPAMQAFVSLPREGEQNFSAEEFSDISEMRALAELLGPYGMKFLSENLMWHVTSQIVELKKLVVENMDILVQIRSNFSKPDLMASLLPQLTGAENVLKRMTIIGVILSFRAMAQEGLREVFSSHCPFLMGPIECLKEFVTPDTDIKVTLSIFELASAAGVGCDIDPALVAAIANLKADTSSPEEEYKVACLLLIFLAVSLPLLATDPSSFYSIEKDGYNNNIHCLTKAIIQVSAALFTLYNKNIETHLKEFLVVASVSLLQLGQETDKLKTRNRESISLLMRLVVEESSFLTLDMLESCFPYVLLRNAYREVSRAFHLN
human immunodeficiency virus type I enhancer binding protein 2 (Homo sapiens), sequence (P31629 whole entry): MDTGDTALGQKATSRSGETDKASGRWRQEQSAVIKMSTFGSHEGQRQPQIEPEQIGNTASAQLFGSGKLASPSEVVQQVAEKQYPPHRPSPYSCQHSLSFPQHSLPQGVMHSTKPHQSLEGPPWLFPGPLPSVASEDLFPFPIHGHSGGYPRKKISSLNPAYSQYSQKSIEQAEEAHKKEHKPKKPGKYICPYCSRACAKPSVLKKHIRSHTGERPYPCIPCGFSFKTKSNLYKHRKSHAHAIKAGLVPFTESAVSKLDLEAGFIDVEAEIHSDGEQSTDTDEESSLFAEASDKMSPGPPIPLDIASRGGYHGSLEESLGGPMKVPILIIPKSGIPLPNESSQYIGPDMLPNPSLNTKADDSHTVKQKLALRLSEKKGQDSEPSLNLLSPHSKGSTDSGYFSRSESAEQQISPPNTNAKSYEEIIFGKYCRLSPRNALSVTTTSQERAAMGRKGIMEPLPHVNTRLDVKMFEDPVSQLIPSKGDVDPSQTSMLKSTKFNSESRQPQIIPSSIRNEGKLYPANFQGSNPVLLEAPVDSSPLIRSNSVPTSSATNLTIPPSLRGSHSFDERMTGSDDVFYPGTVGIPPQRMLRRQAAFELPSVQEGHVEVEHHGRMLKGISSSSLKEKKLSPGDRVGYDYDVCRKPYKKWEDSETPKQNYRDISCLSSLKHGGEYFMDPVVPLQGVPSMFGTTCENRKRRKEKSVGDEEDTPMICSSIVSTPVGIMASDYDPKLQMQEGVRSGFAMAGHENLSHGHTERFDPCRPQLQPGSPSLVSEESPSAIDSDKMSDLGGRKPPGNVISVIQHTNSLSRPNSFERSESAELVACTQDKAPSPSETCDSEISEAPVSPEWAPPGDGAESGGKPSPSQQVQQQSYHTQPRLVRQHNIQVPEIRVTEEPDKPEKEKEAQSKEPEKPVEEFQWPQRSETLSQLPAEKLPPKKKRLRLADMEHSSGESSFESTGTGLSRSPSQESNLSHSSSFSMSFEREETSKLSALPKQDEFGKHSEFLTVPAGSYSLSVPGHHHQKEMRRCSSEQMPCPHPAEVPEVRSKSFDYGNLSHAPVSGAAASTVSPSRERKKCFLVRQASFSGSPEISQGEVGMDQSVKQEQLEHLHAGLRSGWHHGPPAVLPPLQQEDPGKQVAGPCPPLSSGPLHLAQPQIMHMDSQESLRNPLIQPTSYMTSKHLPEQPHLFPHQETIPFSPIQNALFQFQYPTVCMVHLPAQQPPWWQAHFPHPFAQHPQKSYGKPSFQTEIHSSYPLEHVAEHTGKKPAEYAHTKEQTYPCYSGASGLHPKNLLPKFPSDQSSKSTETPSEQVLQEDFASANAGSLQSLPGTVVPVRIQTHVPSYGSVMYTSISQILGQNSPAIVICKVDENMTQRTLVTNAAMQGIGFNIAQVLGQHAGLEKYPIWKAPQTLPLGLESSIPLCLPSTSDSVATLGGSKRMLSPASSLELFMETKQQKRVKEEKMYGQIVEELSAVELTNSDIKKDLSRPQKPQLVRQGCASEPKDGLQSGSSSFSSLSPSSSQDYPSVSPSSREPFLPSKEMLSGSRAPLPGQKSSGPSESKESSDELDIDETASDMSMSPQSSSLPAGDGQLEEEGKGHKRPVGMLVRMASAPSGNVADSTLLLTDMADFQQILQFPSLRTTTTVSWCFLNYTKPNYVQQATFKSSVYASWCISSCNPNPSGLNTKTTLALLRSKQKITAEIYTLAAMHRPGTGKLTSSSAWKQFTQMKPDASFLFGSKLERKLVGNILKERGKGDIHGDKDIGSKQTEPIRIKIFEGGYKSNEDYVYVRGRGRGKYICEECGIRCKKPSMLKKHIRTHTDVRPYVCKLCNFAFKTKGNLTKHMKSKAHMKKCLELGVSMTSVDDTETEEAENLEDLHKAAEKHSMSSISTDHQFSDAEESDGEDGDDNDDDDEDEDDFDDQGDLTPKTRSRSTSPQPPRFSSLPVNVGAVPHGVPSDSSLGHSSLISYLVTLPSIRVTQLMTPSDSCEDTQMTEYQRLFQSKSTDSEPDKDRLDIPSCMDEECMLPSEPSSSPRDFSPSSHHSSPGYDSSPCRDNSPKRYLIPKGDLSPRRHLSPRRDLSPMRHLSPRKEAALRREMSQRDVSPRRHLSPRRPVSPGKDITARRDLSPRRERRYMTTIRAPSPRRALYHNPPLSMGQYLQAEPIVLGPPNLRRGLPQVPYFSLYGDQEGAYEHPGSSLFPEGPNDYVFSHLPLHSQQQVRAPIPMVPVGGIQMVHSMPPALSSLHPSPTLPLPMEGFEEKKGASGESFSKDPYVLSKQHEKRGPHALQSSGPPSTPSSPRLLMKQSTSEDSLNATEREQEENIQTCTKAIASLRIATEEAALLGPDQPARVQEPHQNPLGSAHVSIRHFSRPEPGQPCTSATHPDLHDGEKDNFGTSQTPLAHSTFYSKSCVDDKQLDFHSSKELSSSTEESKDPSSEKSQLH
hemopexin (Homo sapiens), sequence (P02790 24-462 limits assumed): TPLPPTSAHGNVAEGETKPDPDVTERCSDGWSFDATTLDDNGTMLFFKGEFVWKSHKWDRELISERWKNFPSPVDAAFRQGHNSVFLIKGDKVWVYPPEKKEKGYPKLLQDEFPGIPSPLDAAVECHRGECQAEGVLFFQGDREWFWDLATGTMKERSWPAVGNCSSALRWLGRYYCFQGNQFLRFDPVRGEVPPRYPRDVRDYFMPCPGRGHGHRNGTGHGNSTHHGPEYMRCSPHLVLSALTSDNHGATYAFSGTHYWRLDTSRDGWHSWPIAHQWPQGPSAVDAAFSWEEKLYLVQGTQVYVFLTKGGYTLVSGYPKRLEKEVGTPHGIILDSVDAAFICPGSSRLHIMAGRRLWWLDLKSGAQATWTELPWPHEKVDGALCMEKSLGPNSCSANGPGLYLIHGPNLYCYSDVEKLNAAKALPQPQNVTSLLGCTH

Spectrum Count [1]: 13 count
Spectrum Count [2]: 12 count
Spectrum Count [3]: 41 count
Spectrum Count (KIAA0317 (Homo sapiens)): 10 count
Spectrum Count [4]: 13 count
Spectrum Count [5]: 33 count
Spectrum Count [6]: 9 count
Spectrum Count [7]: 11 count
Spectrum Count [8]: 11 count
Spectrum Count [9]: 30 count
Spectrum Count [10]: 17 count
Spectrum Count [11]: 9 count
Spectrum Count [12]: 11 count
Spectrum Count [13]: 11 count
Spectrum Count (dendrin (Homo sapiens)): 14 count
Spectrum Count [14]: 10 count
Spectrum Count [15]: 9 count
Spectrum Count [16]: 35 count
Spectrum Count (hemopexin (Homo sapiens)): 35 count
Spectrum Count [17]: 14 count
Spectrum Count [18]: 9 count
Spectrum Count [19]: 15 count
Spectrum Count [20]: 14 count
Spectrum Count [21]: 17 count
Spectrum Count [22]: 9 count
Spectrum Count [23]: 53 count
Spectrum Count [24]: 38 count
Spectrum Count [25]: 22 count
Spectrum Count [26]: 19 count
Spectrum Count [27]: 13 count
Spectrum Count [28]: 21 count
Spectrum Count [29]: 21 count
Substance: GroEL having Aspartate 490 substituted with Cysteine, biotinylated and conjugated onto NeutrAvidin beads (from UniProt A1AJ51 1-548)
